Reference: US20240182563A1 (GENOME, published 2024)

Tests used:
human CNTN4-10xHis = molecular target: T1, human CNTN4-10xHis (human, UniProt Q8IWV2 19-1000); test: ELISA, plate coated with CNTN4-10xHis, anti-human Fc-HRP
T1 sequence: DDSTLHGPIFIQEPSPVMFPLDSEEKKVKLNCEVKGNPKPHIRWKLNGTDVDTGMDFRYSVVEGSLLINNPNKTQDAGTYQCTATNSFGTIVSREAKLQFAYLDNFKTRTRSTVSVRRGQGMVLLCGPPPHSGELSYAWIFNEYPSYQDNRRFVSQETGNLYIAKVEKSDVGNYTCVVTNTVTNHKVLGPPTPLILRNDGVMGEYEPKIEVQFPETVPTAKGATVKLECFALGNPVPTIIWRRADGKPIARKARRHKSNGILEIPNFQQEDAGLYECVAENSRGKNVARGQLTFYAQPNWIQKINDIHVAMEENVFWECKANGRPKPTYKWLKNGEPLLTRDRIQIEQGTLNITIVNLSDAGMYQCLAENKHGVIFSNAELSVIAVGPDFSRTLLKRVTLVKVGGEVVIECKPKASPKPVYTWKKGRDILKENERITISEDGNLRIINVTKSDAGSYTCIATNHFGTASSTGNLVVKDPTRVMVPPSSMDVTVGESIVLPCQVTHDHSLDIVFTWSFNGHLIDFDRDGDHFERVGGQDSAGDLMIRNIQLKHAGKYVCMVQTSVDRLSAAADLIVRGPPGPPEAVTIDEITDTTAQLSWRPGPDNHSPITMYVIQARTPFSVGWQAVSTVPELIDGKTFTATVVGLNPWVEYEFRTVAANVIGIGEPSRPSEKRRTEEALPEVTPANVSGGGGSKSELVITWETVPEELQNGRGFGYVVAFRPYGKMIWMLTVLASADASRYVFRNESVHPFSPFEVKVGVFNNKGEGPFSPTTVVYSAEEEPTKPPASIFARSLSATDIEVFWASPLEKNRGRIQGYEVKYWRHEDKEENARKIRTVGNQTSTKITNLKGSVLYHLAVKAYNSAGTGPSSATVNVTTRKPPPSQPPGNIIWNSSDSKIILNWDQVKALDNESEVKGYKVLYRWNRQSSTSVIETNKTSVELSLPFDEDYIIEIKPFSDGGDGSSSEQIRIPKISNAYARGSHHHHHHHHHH
Protocol: An ELISA test was performed on A-01 prepared in Example 2.1. An ELISA plate was coated with 200 ng of antigens (human CNTN4-10xHis or mouse CNTN4-10xHis). For antibody binding, A-01 was serially diluted from a maximum of 1 μM to 0.0001 nM, thereby binding to the antigen. Anti-human Fc-HRP was used as a secondary antibody for antibody detection. Color was developed using ABTS, which is a color developing reagent, and the absorbance at 405 nm was measured.

Human CNTN-4 protein = molecular target: T2, Human CNTN-4 protein (human, UniProt Q8IWV2 19-1000, limits assumed); test: SPR, antibody captured by anti-human IgG Fc on CM5 chip, CNTN4 as analyte
T2 construct: soluble antigen run over the captured antibody; also called human CNTN4 (SPR analyte)
T2 sequence (looked up): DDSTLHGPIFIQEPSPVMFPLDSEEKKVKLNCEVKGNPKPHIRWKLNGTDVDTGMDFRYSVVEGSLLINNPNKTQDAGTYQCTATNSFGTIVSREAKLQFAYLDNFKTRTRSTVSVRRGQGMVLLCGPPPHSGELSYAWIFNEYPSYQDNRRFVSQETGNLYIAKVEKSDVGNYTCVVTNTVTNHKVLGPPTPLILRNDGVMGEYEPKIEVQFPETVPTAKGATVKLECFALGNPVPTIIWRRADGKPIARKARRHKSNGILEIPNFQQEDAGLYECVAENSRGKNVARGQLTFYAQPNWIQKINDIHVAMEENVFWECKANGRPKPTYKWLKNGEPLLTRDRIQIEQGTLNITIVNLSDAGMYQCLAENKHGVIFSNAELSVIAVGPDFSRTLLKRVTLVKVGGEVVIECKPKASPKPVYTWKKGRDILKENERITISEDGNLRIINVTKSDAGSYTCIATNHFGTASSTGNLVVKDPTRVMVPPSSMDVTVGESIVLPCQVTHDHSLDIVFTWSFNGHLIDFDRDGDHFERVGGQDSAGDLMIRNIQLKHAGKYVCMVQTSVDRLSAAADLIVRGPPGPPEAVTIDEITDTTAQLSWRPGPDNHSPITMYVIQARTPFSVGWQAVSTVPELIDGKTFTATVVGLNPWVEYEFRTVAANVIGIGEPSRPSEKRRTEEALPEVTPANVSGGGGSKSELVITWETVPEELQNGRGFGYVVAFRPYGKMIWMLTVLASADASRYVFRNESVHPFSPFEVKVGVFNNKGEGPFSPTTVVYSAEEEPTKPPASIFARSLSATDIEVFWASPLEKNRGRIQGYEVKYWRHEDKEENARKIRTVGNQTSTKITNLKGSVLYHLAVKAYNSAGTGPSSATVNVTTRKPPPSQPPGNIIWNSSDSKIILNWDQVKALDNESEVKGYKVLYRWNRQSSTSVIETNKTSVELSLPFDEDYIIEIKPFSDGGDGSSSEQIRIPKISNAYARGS
Protocol: Specifically, in order to bind anti-human IgG Fc (capture antibody) using amine coupling, CM5 chip was mounted, running buffer was allowed to flow, the chip was activated, and then capture antibody was attached thereto. Dextrin to which capture antibody was not attached was deactivated using ethanolamine, and then regeneration was performed using 3M magnesium chloride to clear analyte except capture antibody. The A-01 prepared at a concentration of 0.05 μg/mL was allowed to flow for 30 seconds at a rate of 10 μL/min for binding. Thereafter, human CNTN4 (400 nM to 0.78 nM) prepared by sequential dilution as an antigen was allowed to flow at a rate of 30 μL/min for 3 minutes to be bound, and dissociation was performed for 5 minutes. Then, in order to clear all analytes attached to the capture antibody, a regeneration solution (3M magnesium chloride) was allowed to flow at a rate of 20 μL/min for 30 seconds, and regeneration was performed. For each concentration of antigen, binding of A-01, binding of antigen, dissociation, and regeneration were repeated in order.

- EC50 (human CNTN4-10xHis): 0.011 nM
- Kd (Human CNTN-4 protein): 33.6 nM
B1: anti-CNTN4 129 chimeric IgG4-S228P (antibody, V domains shown)
VH: AVTLDESEGGLQTPGGALSLVCKASGFTFSSFNMFWVRQAPGKGLEYVAEISGGGGSTWYAPAVKGRATISRDNGQSTVRLQLNNLRAEDTGTYYCAKSADTWSYGAATIDAWGHGTEVIVSS
VL: ALTQPSSVSANLGETVKITCSGSSGSYGWYQQKSPGSAPVTLIYDNTNRPSDIPSRFSGSGSGSTGTLTITGVRAEDEAVYYCGGYDGSTDVFGAGTTLTVL
notes: chicken-human chimeric IgG4-S228P made from S129, kappa light chain constant region (Kappa select); also called A-01; LAHA
